The nature of series [1]: Activity screening of cell-free translated PMT enzymes with feruloyl-CoA and monolignol mixture (LC-MS). Particulars: fed monolignols (H, G, S) and feruloyl-CoA, FIGS. 3B, 4B, 10. The format is biochemical. The protocol: (§1) The active enzymes were produced using a wheat germ cell-free translation bilayer method previously reported (Makino, S., Beebe, E. T., Markley, J. L. and Fox, B. G. (2014) Cell-free protein synthesis for functional and structural studies. Methods in Molecular Biology, 1091, 161-178). Briefly, a translation reaction mixture consisting of 60 OD wheat germ extract (CellFree Sciences, Matsuyama, Japan), 0.04 mg/mL creatine kinase, 0.3 mM each amino acid, 12.6 mM HEPES-KOH, pH 7.8, 52.6 mM potassium acetate, 1.3 mM magnesium acetate, 0.2 mM spermidine HCl, 2.1 mM DTT, 0.6 mM ATP, 0.13 mM GTP, 8.4 mM creatine phosphate, and 0.003% sodium azide was prepared and combined with non-purified, fresh transcription at a ratio of 4 parts reaction mix to 1 part transcription. A feeding layer was prepared consisting of 0.3 mM each amino acid, 24 mM HEPES-KOH, pH 7.8, 100 mM potassium acetate, 2.5 mM magnesium acetate, 0.4 mM spermidine HCl, 4 mM DTT, 1.2 mM ATP, 0.25 mM GTP, 16 mM creatine phosphate, and 0.005% sodium azide, of which […] was added to wells of a U-bottom 96-well plate. 25 μL of the denser translation reaction mixture was carefully underlayed below the feeding layer, forming a bilayer. The plate was sealed and incubated at 22° C. for 18 h. The fully-diffused 150-μL bilayer reaction was then harvested and used for expression analysis by SDS-PAGE, and activity screening.
The enzyme mixture was screened for activity with p-coumaroyl-CoA (FIG. 2B) and feruloyl-CoA (FIG. 2C) and all three monolignols (FIG. 2A) (p-coumaryl, coniferyl, and sinapyl alcohol). Each enzyme was tested individually alongside positive and negative controls following the procedure previously reported (Withers, S., Lu, F., Kim, H., Zhu, Y., Ralph, J. and Wilkerson, C. G. (2012) Identification of a grass-specific enzyme that acylates monolignols with p-coumarate. Journal of Biological Chemistry, 287, 8347-8355). Briefly, the assay was initiated by adding 10 μL of wheat germ cell-free translation containing one of the PMT enzymes at a concentration of 1.5-2 μM to a reaction containing 50 mM sodium phosphate buffer, pH 6, 1 mM dithiothreitol (DTT), 1 mM CoA thioester, 1 mM monolignol mixture (each monolignol at 1 mM concentration), and deionized water in a final volume of 50 μL. After a 30-min incubation, the reaction was stopped by the addition of an equal volume 100 mM hydrochloric acid. Reaction products were solubilized by adjusting the solution to 50% methanol. An identical assay with no enzyme added was performed for every reaction. Samples were filtered through 0.2 μm filters prior to analysis by liquid chromatography-mass spectrometry (LC-MS). […]

A short description of series [2]: Activity screening of cell-free translated PMT enzymes with p-coumaroyl-CoA and monolignol mixture (LC-MS). The format is biochemical. To be noted: fed monolignols (H, G, S) and p-coumaroyl-CoA; FIGS. 3A, 4A, 9. On the procedure:
as §1, with “screening. […]” for “screening.”

Entries after “also recorded” stand apart in the source; their conditions may differ.

B1: PvPMT: Panicum virgatum (switchgrass) p-coumaroyl-CoA:monolignol transferase, amino acid sequence SEQ ID NO:2, Pavir.J00672.1 (protein, listed as Panicum virgatum)
chain: MGTIGFPVTRTSRSLVAPSSATPQETLHLSVIDRVAGLRHLVRSLHVFDGRRGEAAVRTPAETLRAALGKALVDYYPLAGRFVEEDGEVRVACTAGGAWFVEAAAACTLEEVKHLDHPMVIPKEDLLPEPAPDVNPLDMPLMMQVTEFACGGFVVGLISVHTIADGLGAGQFINAVADYARGLPRPRVLPVWARDVIPAPSRIVSPPPRFDLLDLRYFTVDLSPEHIAKVKSSFFEATGQRCSAFDVCVAKTWQSRVRALRLDGDDPARPIHVCFFANTRHLLPQLAPGFYGNCFYTVRATRPCGEVAAAGVVEVVRAIRDAKARLGADFARWAAGGFERDPYELTFSYDSLFVSDWTRLGFLEADYGWGAPAHVVPFSYHPFMAVAVIGAPPAPKPGARVMTMCVTEKHLPEFQEQMNAFAAGNHQ
Regarding B1, the “feruloyl-CoA monolignol transferase activity (in words)” value in series [1] is given as “limited to no feruloyl-CoA monolignol transferase activity; also recorded: little to no activity”; in series [1] (listed as SEQ ID NO:2), “no relevant activity in generating monolignol ferulates”. Besides, the “p-coumaroyl-CoA:monolignol transferase activity (in words)” value in series [2] is “active PMTs, coupling monolignols to p-coumaroyl-CoA; also recorded: found to produce monolignol p-coumarate conjugates”.

B2: SbPMT: Sorghum bicolor (sorghum) p-coumaroyl-CoA:monolignol transferase, amino acid sequence SEQ ID NO:4, Sb09g002910.1 (protein)
chain: MGTIDDTAGLFPVTRTNRSLVPPSSATPQETLRLSVIDRVAGLRHLVRSLHVFAGGENKKQAAPPAKSLREALGKALVDYYPFAGRFVEEDGEVRVACTGEGAWFVEAAAACSLEEVRHLDHPMLIPKEELLPEPAPGVNPLDMPLMMQVTEFTCGGFVVGLISVHTIADGLGAGQFINAVADYARGGATAGAVTRPRITPIWARDVIPDPPKMPAPPPRLDLLDLVYFTTDLSPDHIAKVKSSYLESTGQRCSAFDVCVARTWQARVRALRLPDAAAPVHVCFFANTRHLLPATAAAPASGFYGNCFYTVKATRPSGEVAAADIVDVVRAIRDAKARLAADFARWAAGGFDRDPYELTFTYDSLFVSDWTRLGFLEADYGWGTPTHVVPFSYHPFMAVAVIGAPPAPKPGARIMTMCVQEQHLPEFQEQMNQPCS
modifications: Sorghum bicolor
On to B2, for which the “feruloyl-CoA monolignol transferase activity (in words)” value in series [1] was “limited to no feruloyl-CoA monolignol transferase activity; also recorded: little to no activity”; in series [1] (listed as SEQ ID NO:4), “no relevant activity in generating monolignol ferulates”. Besides, in series [2], the “p-coumaroyl-CoA:monolignol transferase activity (in words)” value is recorded as “active PMTs, coupling monolignols to p-coumaroyl-CoA; also recorded: found to produce monolignol p-coumarate conjugates”.

Values taken from US10883090B2, “P-coumaroyl-CoA:monolignol transferases” (WISCONSIN ALUMNI RESEARCH FOUNDATION, priority 2017, dated 2021).
